From the supplement of paper PMC5998384 come the findings set out here.

Series [1] concerns HeLa Kyoto. The series can be described thus: solubility change mitosis vs G1/S (difference of NP-40 vs SDS log2 ratios) (log2 ratio difference); higher = more soluble in mitosis.
For series [2], the system named is HeLa Kyoto. The series can be described thus: solubility in G1/S (NP-40 vs SDS abundance) (log2 ratio); higher = more soluble. The settings on record: cell cycle stage: G1/S.
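Throughout, for solubility change mitosis vs G1/S (difference of NP-40 vs SDS log2 ratios): synchronized HeLa Kyoto cells (double thymidine block for G1/S, nocodazole release for mitosis), protein amounts in NP-40 versus SDS lysates quantified by mass spectrometry, three biological replicates.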
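Throughout, for solubility in G1/S (NP-40 vs SDS abundance): HeLa Kyoto cells arrested at G1/S by double thymidine block, proteins quantified by TMT10plex mass spectrometry in mild NP-40 versus SDS extracts, three biological replicates.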

For “MSHGPKQPGAAAAPAGGKAPGQHGGFVVTVKQERGEGPRAGEKGSHEEEPVKKRGWPKGKKRKKILPNGPKAPVTGYVRFLNERREQIRTRHPDLPFPEITKMLGAEWSKLQPTEKQRYLDEAEREKQQYMKELRAYQQSEAYKMCTEKIQEKKIKKEDSSSGLMNTLLNGHKGGDCDGFSTFDVPIFTEEFLDQNKAREAELRRLRKMNVAFEEQNAVLQRHTQSMSSARERLEQELALEERRTLALQQQLQAVRQALTASFASLPVPGTGETPTLGTLDFYMARLHGAIERDPAQHEKLIVRIKEILAQVASEHL [HMG20B]”, the “solubility change mitosis (log2)” value in the series on HeLa Kyoto [1] is -0.0403. In addition, in the series with HeLa Kyoto [2], the “solubility in G1/S (log2)” value came out at 0.616.
In the same order, the values of “MSKGRAEAAAGAAGILLRYLQEQNRPYSSQDVFGNLQREHGLGKAVVVKTLEQLAQQGKIKEKMYGKQKIYFADQDQFDMVSDADLQVLDGKIVALTAKVQSLQQSCRYMEAELKELSSALTTPEMQKEIQELKKECAGYRERLKNIKAATNHVTPEEKEQVYRERQKYCKEWRKRKRMATELSDAILEGYPKSKKQFFEEVGIETDEDYNVTLPDP [PSMC3IP]” are 0.072 and 0.125.
Taken in the same sequence, the figures for “MSKTFLRPKVSSTKVTDWVDPSFDDFLECSGVSTITATSLGVNNSSHRRKNGPSTLESSRFPARKRGNLSSLEQIYGLENSKEYLSENEPWVDKYKPETQHELAVHKKKIEEVETWLKAQVLERQPKQGGSILLITGPPGCGKTTTLKILSKEHGIQVQEWINPVLPDFQKDDFKGMFNTESSFHMFPYQSQIAVFKEFLLRATKYNKLQMLGDDLRTDKKIILVEDLPNQFYRDSHTLHEVLRKYVRIGRCPLIFIISDSLSGDNNQRLLFPKEIQEECSISNISFNPVAPTIMMKFLNRIVTIEANKNGGKITVPDKTSLELLCQGCSGDIRSAINSLQFSSSKGENNLRPRKKGMSLKSDAVLSKSKRRKKPDRVFENQEVQAIGGKDVSLFLFRALGKILYCKRASLTELDSPRLPSHLSEYERDTLLVEPEEVVEMSHMPGDLFNLYLHQNYIDFFMEIDDIVRASEFLSFADILSGDWNTRSLLREYSTSIATRGVMHSNKARGYAHCQGGGSSFRPLHKPQWFLINKKYRENCLAAKALFPDFCLPALCLQTQLLPYLALLTIPMRNQAQISFIQDIGRLPLKRHFGRLKMEALTDREHGMIDPDSGDEAQLNGGHSAEESLGEPTQATVPETWSLPLSQNSASELPASQPQPFSAQGDMEENIIIEDYESDGT [RAD17]” were 0.000111 and -0.0641.
Turning to “MSLERELRQLSKAKAKAQRAGQRREEAALCHQLGELLAGHGRYAEALEQHWQELQLRERADDPLGCAVAHRKIGERLAEMEDYPAALQHQHQYLELAHSLRNHTELQRAWATIGRTHLDIYDHCQSRDALLQAQAAFEKSLAIVDEELEGTLAQGELNEMRTRLYLNLGLTFESLQQTALCNDYFRKSIFLAEQNHLYEDLFRARYNLGTIHWRAGQHSQAMRCLEGARECAHTMRKRFMESECCVVIAQVLQDLGDFLAAKRALKKAYRLGSQKPVQRAAICQNLQHVLAVVRLQQQLEEAEGRDPQGAMVICEQLGDLFSKAGDFPRAAEAYQKQLRFAELLDRPGAERAIIHVSLATTLGDMKDHHGAVRHYEEELRLRSGNVLEEAKTWLNIALSREEAGDAYELLAPCFQKALSCAQQAQRPQLQRQVLQHLHTVQLRLQPQEAPETETRLRELSVAEDEDEEEEAEEAAATAESEALEAGEVELSEGEDDTDGLTPQLEEDEELQGHLGRRKGSKWNRRNDMGETLLHRACIEGQLRRVQDLVRQGHPLNPRDYCGWTPLHEACNYGHLEIVRFLLDHGAAVDDPGGQGCEGITPLHDALNCGHFEVAELLLERGASVTLRTRKGLSPLETLQQWVKLYRRDLDLETRQKARAMEMLLQAAASGQDPHSSQAFHTPSSLLFDPETSPPLSPCPEPPSNSTRLPEASQAHVRVSPGQAAPAMARPRRSRHGPASSSSSSEGEDSAGPARPSQKRPRCSATAQRVAAWTPGPASNREAATASTSRAAYQAAIRGVGSAQSRLGPGPPRGHSKALAPQAALIPEEECLAGDWLELDMPLTRSRRPRPRGTGDNRRPSSTSGSDSEESRPRARAKQVRLTCMQSCSAPVNAGPSSLASEPPGSPSTPRVSEPSGDSSAAGQPLGPAPPPPIRVRVQVQDHLFLIPVPHSSDTHSVAWLAEQAAQRYYQTCGLLPRLTLRKEGALLAPQDLIPDVLQSNDEVLAEVTSWDLPPLTDRYRRACQSLGQGEHQQVLQAVELQGLGLSFSACSLALDQAQLTPLLRALKLHTALRELRLAGNRLGDKCVAELVAALGTMPSLALLDLSSNHLGPEGLRQLAMGLPGQATLQSLEELDLSMNPLGDGCGQSLASLLHACPLLSTLRLQACGFGPSFFLSHQTALGSAFQDAEHLKTLSLSYNALGAPALARTLQSLPAGTLLHLELSSVAAGKGDSDLMEPVFRYLAKEGCALAHLTLSANHLGDKAVRDLCRCLSLCPSLISLDLSANPEISCASLEELLSTLQKRPQGLSFLGLSGCAVQGPLGLGLWDKIAAQLRELQLCSRRLCAEDRDALRQLQPSRPGPGECTLDHGSKLFFRRL [TONSL]”, the “solubility change mitosis (log2)” value with HeLa Kyoto [1] was 0.119. For the same sequence, the “solubility in G1/S (log2)” value in the series with HeLa Kyoto [2] is -0.116.
Turning to “MSQKQEEENPAEETGEEKQDTQEKEGILPERAEEAKLKAKYPSLGQKPGGSDFLMKRLQKGQKYFDSGDYNMAKAKMKNKQLPSAGPDKNLVTGDHIPTPQDLPQRKSSLVTSKLAGGQVE [ENSA]”, in the series on HeLa Kyoto [1], the “solubility change mitosis (log2)” value stood at 0.654. The “solubility in G1/S (log2)” value in the series with HeLa Kyoto [2] is -0.789.
In the same order, the values of “MSRQAKDDFLRHYTVSDPRTHPKGYTEYKVTAQFISKKDPEDVKEVVVWKRYSDFRKLHGDLAYTHRNLFRRLEEFPAFPRAQVFGRFEASVIEERRKGAEDLLRFTVHIPALNNSPQLKEFFRGGEVTRPLEVSRDLHILPPPLIPTPPPDDPRLSQLLPAERRGLEELEVPVDPPPSSPAQEALDLLFNCESTEEASGSPARGPLTEAELALFDPFSKEEGAAPSPTHVAELATMEVESARLDQEPWEPGGQEEEEDGEGGPTPAYLSQATELITQALRDEKAGAYAAALQGYRDGVHVLLQGVPSDPLPARQEGVKKKAAEYLKRAEEILRLHLSQLPP [SNX15]” are -0.104 and 0.365.
Turning to “MSRRRFDCRSISGLLTTTPQIPIKMENFNNFYILTSKELGRGKFAVVRQCISKSTGQEYAAKFLKKRRRGQDCRAEILHEIAVLELAKSCPRVINLHEVYENTSEIILILEYAAGGEIFSLCLPELAEMVSENDVIRLIKQILEGVYYLHQNNIVHLDLKPQNILLSSIYPLGDIKIVDFGMSRKIGHACELREIMGTPEYLAPEILNYDPITTATDMWNIGIIAYMLLTHTSPFVGEDNQETYLNISQVNVDYSEETFSSVSQLATDFIQSLLVKNPEKRPTAEICLSHSWLQQWDFENLFHPEETSSSSQTQDHSVRSSEDKTSKSSCNGTCGDREDKENIPEDSSMVSKRFRFDDSLPNPHELVSDLLC [STK17B]”, in the series with HeLa Kyoto [1], the “solubility change mitosis (log2)” value is -0.161. In the series on HeLa Kyoto [2], the “solubility in G1/S (log2)” value is 0.0558.
Taken in the same sequence, the figures for “MSRRTRCEDLDELHYQDTDSDVPEQRDSKCKVKWTHEEDEQLRALVRQFGQQDWKFLASHFPNRTDQQCQYRWLRVLNPDLVKGPWTKEEDQKVIELVKKYGTKQWTLIAKHLKGRLGKQCRERWHNHLNPEVKKSCWTEEEDRIICEAHKVLGNRWAEIAKMLPGRTDNAVKNHWNSTIKRKVDTGGFLSESKDCKPPVYLLLELEDKDGLQSAQPTEGQGSLLTNWPSVPPTIKEEENSEEELAAATTSKEQEPIGTDLDAVRTPEPLEEFPKREDQEGSPPETSLPYKWVVEAANLLIPAVGSSLSEALDLIESDPDAWCDLSKFDLPEEPSAEDSINNSLVQLQASHQQQVLPPRQPSALVPSVTEYRLDGHTISDLSRSSRGELIPISPSTEVGGSGIGTPPSVLKRQRKRRVALSPVTENSTSLSFLDSCNSLTPKSTPVKTLPFSPSQFLNFWNKQDTLELESPSLTSTPVCSQKVVVTTPLHRDKTPLHQKHAAFVTPDQKYSMDNTPHTPTPFKNALEKYGPLKPLPQTPHLEEDLKEVLRSEAGIELIIEDDIRPEKQKRKPGLRRSPIKKVRKSLALDIVDEDVKLMMSTLPKSLSLPTTAPSNSSSLTLSGIKEDNSLLNQGFLQAKPEKAAVAQKPRSHFTTPAPMSSAWKTVACGGTRDQLFMQEKARQLLGRLKPSHTSRTLILS [MYBL2]” were -0.187 and 0.219.
In the same order, the values of “MSTTLLSAFYDVDFLCKTEKSLANLNLNNMLDKKAVGTPVAAAPSSGFAPGFLRRHSASNLHALAHPAPSPGSCSPKFPGAANGSSCGSAAAGGPTSYGTLKEPSGGGGTALLNKENKFRDRSFSENGDRSQHLLHLQQQQKGGGGSQINSTRYKTELCRPFEESGTCKYGEKCQFAHGFHELRSLTRHPKYKTELCRTFHTIGFCPYGPRCHFIHNADERRPAPSGGASGDLRAFGTRDALHLGFPREPRPKLHHSLSFSGFPSGHHQPPGGLESPLLLDSPTSRTPPPPSCSSASSCSSSASSCSSASAASTPSGAPTCCASAAAAAAAALLYGTGGAEDLLAPGAPCAACSSASCANNAFAFGPELSSLITPLAIQTHNFAAVAAAAYYRSQQQQQQQGLAPPAQPPAPPSATLPAGAAAPPSPPFSFQLPRRLSDSPVFDAPPSPPDSLSDRDSYLSGSLSSGSLSGSESPSLDPGRRLPIFSRLSISDD [ZFP36L2]” are -0.261 and 0.322.
Taken in the same sequence, the figures for “MSYRRELEKYRDLDEDEILGALTEEELRTLENELDELDPDNALLPAGLRQKDQTTKAPTGPFKREELLDHLEKQAKEFKDREDLVPYTGEKRGKVWVPKQKPLDPVLESVTLEPELEEALANASDAELCDIAAILGMHTLMSNQQYYQALSSSSIMNKEGLNSVIKPTQYKPVPDEEPNSTDVEETLERIKNNDPKLEEVNLNNIRNIPIPTLKAYAEALKENSYVKKFSIVGTRSNDPVAYALAEMLKENKVLKTLNVESNFISGAGILRLVEALPYNTSLVEMKIDNQSQPLGNKVEMEIVSMLEKNATLLKFGYHFTQQGPRLRASNAMMNNNDLVRKRRLADLTGPIIPKCRSGV [TMOD1]” were 0.357 and 0.122.
Take “MTDPFCVGGRRLPGSSKSGPGKDGSRKEVRLPMLHDPPKMGMPVVRGGQTVPGQAPLCFDPGSPASDKTEGKKKGRPKAENQALRDIPLSLMNDWKDEFKAHSRVKCPNSGCWLEFPSIYGLKYHYQRCQGGAISDRLAFPCPFCEAAFTSKTQLEKHRIWNHMDRPLPASKPGPISRPVTISRPVGVSKPIGVSKPVTIGKPVGVSKPIGISKPVSVGRPMPVTKAIPVTRPVPVTKPVTVSRPMPVTKAMPVTKPITVTKSVPVTKPVPVTKPITVTKLVTVTKPVPVTKPVTVSRPIVVSKPVTVSRPIAISRHTPPCKMVLLTRSENKAPRATGRNSGKKRAADSLDTCPIPPKQARPENGEYGPSSMGQSSAFQLSADTSSGSLSPGSRPSGGMEALKAAGPASPPEEDPERTKHRRKQKTPKKFTGEQPSISGTFGLKGLVKAEDKARVHRSKKQEGPGPEDARKKVPAAPITVSKEAPAPVAHPAPGGPEEQWQRAIHERGEAVCPTCNVVTRKTLVGLKKHMEVCQKLQDALKCQHCRKQFKSKAGLNYHTMAEHSAKPSDAEASEGGEQEERERLRKVLKQMGRLRCPQEGCGAAFSSLMGYQYHQRRCGKPPCEVDSPSFPCTHCGKTYRSKAGHDYHVRSEHTAPPPEEPTDKSPEAEDPLGVERTPSGRVRRTSAQVAVFHLQEIAEDELARDWTKRRMKDDLVPETARLNYTRPGLPTLNPQLLEAWKNEVKEKGHVNCPNDCCEAIYSSVSGLKAHLASCSKGAHLAGKYRCLLCPKEFSSESGVKYHILKTHAENWFRTSADPPPKHRSQDSLVPKKEKKKNLAGGKKRGRKPKERTPEEPVAKLPPRRDDWPPGCRDKGARGSTGRKVGVSKAPEK [ZNF512B]”: in the series with HeLa Kyoto [1], the “solubility change mitosis (log2)” value is 0.776. For the same sequence, the “solubility in G1/S (log2)” value in the series on HeLa Kyoto [2] is -0.767.
